Experimental data reported in patent publication US20210198347A1 (Chugai, published 2021).

T1: recombinant human C1r CCP1-CCP2-SP-FLAG (human, UniProt P00736 307-705)
T1 construct: Truncated protein lacking the CUB1-EGF-CUB2 domain of C1r; also called human C1r CCP1-CCP2-SP I307-D705
T1 chain: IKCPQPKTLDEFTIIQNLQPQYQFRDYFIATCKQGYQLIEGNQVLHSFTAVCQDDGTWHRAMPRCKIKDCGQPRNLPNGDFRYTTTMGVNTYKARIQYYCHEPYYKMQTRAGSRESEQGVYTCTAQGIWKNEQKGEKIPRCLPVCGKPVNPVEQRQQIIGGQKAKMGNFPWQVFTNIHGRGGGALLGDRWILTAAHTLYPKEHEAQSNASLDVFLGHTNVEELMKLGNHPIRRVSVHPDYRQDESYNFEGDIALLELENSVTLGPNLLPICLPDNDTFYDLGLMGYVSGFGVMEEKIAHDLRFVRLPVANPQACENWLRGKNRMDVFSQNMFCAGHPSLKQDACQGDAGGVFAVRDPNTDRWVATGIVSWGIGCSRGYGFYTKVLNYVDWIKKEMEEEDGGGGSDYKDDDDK

T2: recombinant human C1r2s2 Flag/His tetramer (human, UniProt P09871 16-688; P00736 18-705)
T2 construct: whole entries named; also called hc1r2s2; rC1r2s2
T2 chain 1: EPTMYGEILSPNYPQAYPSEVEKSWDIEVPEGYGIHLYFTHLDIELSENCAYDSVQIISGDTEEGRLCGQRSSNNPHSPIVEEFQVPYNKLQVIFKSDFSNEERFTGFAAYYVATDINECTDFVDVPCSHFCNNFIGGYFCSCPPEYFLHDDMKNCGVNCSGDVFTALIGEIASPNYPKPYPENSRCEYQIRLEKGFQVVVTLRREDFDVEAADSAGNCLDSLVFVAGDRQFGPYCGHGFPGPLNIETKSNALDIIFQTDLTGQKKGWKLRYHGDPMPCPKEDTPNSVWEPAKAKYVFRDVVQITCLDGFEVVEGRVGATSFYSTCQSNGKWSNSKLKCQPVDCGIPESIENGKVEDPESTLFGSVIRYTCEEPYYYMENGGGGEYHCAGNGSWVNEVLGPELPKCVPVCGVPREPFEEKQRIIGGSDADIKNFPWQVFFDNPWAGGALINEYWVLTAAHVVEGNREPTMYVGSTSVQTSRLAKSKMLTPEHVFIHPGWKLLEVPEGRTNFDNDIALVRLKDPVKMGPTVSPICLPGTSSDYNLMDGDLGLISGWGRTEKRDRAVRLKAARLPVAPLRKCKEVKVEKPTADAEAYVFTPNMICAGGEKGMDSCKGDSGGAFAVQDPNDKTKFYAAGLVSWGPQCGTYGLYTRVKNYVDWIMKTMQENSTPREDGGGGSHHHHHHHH
T2 chain 2: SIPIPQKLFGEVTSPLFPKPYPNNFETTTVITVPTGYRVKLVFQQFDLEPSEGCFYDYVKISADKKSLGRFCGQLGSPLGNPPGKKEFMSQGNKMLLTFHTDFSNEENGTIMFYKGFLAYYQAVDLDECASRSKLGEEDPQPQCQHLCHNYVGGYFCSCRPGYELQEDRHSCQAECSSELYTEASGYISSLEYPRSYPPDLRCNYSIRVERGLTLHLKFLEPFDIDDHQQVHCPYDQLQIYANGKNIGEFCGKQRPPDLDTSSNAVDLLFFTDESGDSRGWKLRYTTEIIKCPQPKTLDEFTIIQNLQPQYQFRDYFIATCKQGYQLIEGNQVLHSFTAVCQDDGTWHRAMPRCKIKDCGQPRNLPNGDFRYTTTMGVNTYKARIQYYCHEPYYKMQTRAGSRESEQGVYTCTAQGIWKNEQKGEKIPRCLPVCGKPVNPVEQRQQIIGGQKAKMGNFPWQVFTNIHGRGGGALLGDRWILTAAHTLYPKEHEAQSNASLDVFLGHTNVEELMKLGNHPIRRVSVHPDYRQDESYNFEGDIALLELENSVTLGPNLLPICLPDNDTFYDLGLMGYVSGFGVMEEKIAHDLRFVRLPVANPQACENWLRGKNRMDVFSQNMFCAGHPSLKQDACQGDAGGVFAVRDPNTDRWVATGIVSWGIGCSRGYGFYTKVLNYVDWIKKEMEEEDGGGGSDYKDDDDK


What was measured:
[1] = target: T1, recombinant human C1r CCP1-CCP2-SP-FLAG; assay: SPR (BIACORE T200, 37 degrees C, pH 7.4, 1.2 mM CaCl2), antibody captured by protein A/G
[2] = target: T2, recombinant human C1r2s2 Flag/His …; assay: SPR displacement (37 degrees C, pH 7.4): C1r2s2 captured by anti-His, C1q 100 nM pre-bound, antibody 500 nM at 10 micro L/min; time from antibody injection until the antibody sensorgram falls below the buffer sensorgram; competitor native human C1q
Protocol: An anti-His antibody (GE-Healthcare) is immobilized onto all flow cells of a CM4 sensor chip using an amine coupling kit (GE Healthcare). The antibodies, recombinant human C1r2s2 Flag/His tetramer and native human C1q (Comptech A099) are prepared in pH 7.4 buffer (20 mM ACES, 150 mM NaCl, 1.2 mM CaCl₂, 1 mg/mL BSA (IgG-free), 1 mg/mL CMD, 0.05% Tween 20, 0.005% NaN₃, pH 7.4). Recombinant human C1r2s2 Flag/His tetramer is first captured onto the sensor surface by the anti-His antibody (“hc1r2s2”). The capture levels are aimed at 200 resonance unit (RU). Native human C1q is injected at 100 nM to have a capture of 200 RU (“hc1q”), followed by antibody injection at 500 nM at 10 micro L/min for 1200 sec immediately. The sensor surface is regenerated each cycle with 10 mM Glycine-HCl (pH 1.5). For antibodies with the C1q displacement function, the response unit of Sensorgram 2 (in the presence of C1r2s2, C1q, and antibody) is lower than the response unit in Sensorgram 1 (in the presence of C1r2s2, C1q, and buffer, but in the absence of antibody) after the time point where Sensorgrams 1 and 2 cross (“time point of crossover”).
The time point of crossover is identified by subtraction of the buffer response (Sensorgram 1) from the antibody (Ab) response (Sensorgram 2), and referring to the time point when the differential value changes from positive to negative (Table 5).

| Binder | binding result [1] | Time point of crossover (post-injection) [2] [s] |
| --- | --- | --- |
| COR0058bb-SG1148 (antibody, human IgG1, kappa, V domains shown, Anti-C1r antibody) VH: QSVEESGGRLVTPGTPLTLTCTASGFDISNYNMQWVRQSPGKGLEWIGIIWSGGYTDYANWAKGRFTISATSTTVDLKSTSPTTEDTATYFCARQGANFGDYTVDLWGPGTLVTVSS VL: AYDMTQTPASVEVAVGGTVTIKCQASQSIRSSLAWYQQKPGQRPKLLIYRASTLASGVSSRFKGSGSGTQFTLTISGVECADAATYYCQQGYSNINVDNTFGGGTKVEIKR | no binding (tested: 50 nM) | 235 |
| COR0205gg-SG1148 (antibody, human IgG1, kappa, V domains shown, Anti-C1r antibody; also called COR205gg(-SG1148)) VH: QSLEESGGGLFKPTDTLTLTCTVSGFSLSSNAMSWVRQAPGKGLEYIGIIYLTGVTYYATWAKGRFTISKTSTTVDLKITSPTTEDTATYFCAGGEFSLWGPGTLVTVSS VL: DIIMTQTPASVEAAVGGTVTIKCQASQGIDNYFSWHQQKPGQPPKLLIYKASTLASGVSSRFKGSGSGTEFTLTISDLECDDAATYYCQCTYGYNINDNYGNAFGGGTKVEIKR | no binding (tested: 50 nM) | 216 |
| COR0212bb-SG1148 (antibody, human IgG1, kappa, V domains shown, Anti-C1r antibody) VH: QEQLKESGGGLVTPGGTLTLTCTASGFSLSSYDMSWVRQAPGKGLDWIGIINTGGSAYYATWAKGRFTISKTSTTVDLKITSPTTEDTATYFCGRKINDAFDPWGPGTLVTVSS VL: AQVLTQTPFSVSAAVGGTVTINCQASESISSNLAWYQQKPGQPPKLLIYDASDLASGVPSRFKGSGSGKQFTLTISGVQCDDAATYFCQHGWIYDTIDSNCFGGGTKVEIKR | no binding (tested: 50 nM) | 432 |
| COR0208cc-SG1148 (antibody, human IgG1, kappa, V domains shown, Anti-C1r antibody; also called COR208; COR208cc(-SG1148)) VH: QSVEESGGRLVTPGTPLTLTCTVSGFSLSNYYMNWVRQAPGKGLEWIGIIASDDNTWYASWAKGRFTISKTSTTVDLKITSPTTEDTATYFCARDLDVGYGSGWYDLWGQGTLVTVSS VL: AAVLTQTPSPVSVAVGGTVTINCQASQSVYNNNYLAWYQQEPGHRPKLLIYRASKLASGVPSRFSGSGSGTQFTLTISGVQCDDAATYYCLGGYDDFTDTTFGGGTKVEIKR | no binding (tested: 50 nM) | 197 |
| COR0067ff-SG1148 (antibody, human IgG1, kappa, V domains shown, Anti-C1r antibody) VH: QSLEESGGGLVQPEGSLTLTCKASGIDFSSNAMCWVRQAPGKGLEWIGCIYTGSTTIWYASWAKGRFTISKTSSTTVTLQLNSLTVADTATYFCARRDSSSGYAFKLWGPGTLVTVSS VL: DIVMTQTPSSVSAAVGGTVTIKCQASENIYSNLAWYQQKSGQPPNLLIYGASTLESGVPSRFKGSGSGTEFTLTISDLECADAAIYYCQCTYDDSSTFGGGTKVEIKR | no binding (tested: 50 nM) | 85 |

Results, then the binder that gave them:

| binding result [1] | Time point of crossover (post-injection) [2] [s] | Binder |
| --- | --- | --- |
| no binding (tested: 50 nM) | 101 | COR0338gg-SG1148 (antibody, human IgG1, kappa, V domains shown, Anti-C1r antibody) VH: QSLEESGGGLVQPEGSLTLTCKASGIDFSSNAMCWVRQAPGKGLEWIACIYTGSTTIWYATWAKGRFTISKTSSTTVTLQLNSLTVADTATYFCARRASSSGYAFKLWGPGTLVTVSS VL: DVVMTQTPFSVSAAVGGTVTIKCQASESIYSNLAWYQQKPGQPPNLLIYGASTLESGVPSRFKGSGSGTEFTLTISDLECDDAAIYYCQCTYDDSSTFGGGTKVEIKR |
| no binding (tested: 50 nM) | 218 | COR0278bb-SG1148 (antibody, human IgG1, kappa, V domains shown, Anti-C1r antibody) VH: QSLEESGGRLVTPGTPLTLTCTASGFSLSSYDMTWVRQAPGKGLEWIGIIYTLGSAYYASWAKGRFTISRTSTTVDLKMTSPTTEDTATYFCARGGDSYGAVDTAFDLWGPGTLVTVSS VL: AQVLTQTPSPVSAAVGGTVTISCQSSPSVYSNYLSWYQQKPGQPPKLLIYRASRLASGVPSRFKGSGSGTQFTLTISEVQCDDAATYYCQGYFGNGINAFGGGTKVEIKR |
| no binding (tested: 50 nM) | 613 | COR0011bb-SG1148 (antibody, human IgG1, kappa, V domains shown, Anti-C1r antibody) VH: QSLEESGGRLVTPGTPLTLTCTASGFTFSGYYMCWVRQTPGKGLEYIGIIASSGNTYYANWAKGRFTISKTSSTTVDLKMTSLTTEDTATYFCAKPESDYVNGMGLWGPGTLVTVSS VL: DIVMTQTPASVSDPVGGTVTIKCQASQSIYNLLSWYQQKPGQRPKLLIYDASKLASGVPSRFKGSGYGTDFTLTISDLGCADAATYYCQSNYGYSRTDDTFFYGFGGGTKVEIKR |
